# Literature values, collected in PMC4380812.
# Biological target: HdeA (Escherichia coli) (UniProt P0AES9)
# HdeA, sequence (P0AES9 22-110): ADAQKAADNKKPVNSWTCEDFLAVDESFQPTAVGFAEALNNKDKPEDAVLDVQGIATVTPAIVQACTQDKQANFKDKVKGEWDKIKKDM
substance,measurement,value
HdeA (from UniProt P0AES9),Kd,1000 nM
